Where two headings read alike, the source gives them in different places. Values belong to the substance of their own block, whether it stands above or below them.
Tests used:
[1] = molecular target: FL-Hsp70 2LD, full-length human Hsp70 with Leu395 and Leu397 substituted by aspartic residues (human) (UniProt P0DMV8); test: SEC; analytical SEC, Superdex 75 10/300 GL, 4 °C; 220 µM protein
P0DMV8 [2] = test: SEC; analytical SEC, Superdex 75 10/300 GL, 4 °C, 50 mM Tris pH 7.4, 150 mM KCl, 5 mM MgCl2; 70 µM protein
P0DMV8 [3] = test: SEC; analytical SEC, Superdex 75 10/300 GL, 4 °C, 50 mM Tris pH 7.4, 150 mM KCl, 5 mM MgCl2; 6 µM protein
P0DMV8 [4] = test: native MS; nESI-MS, 150 mM ammonium acetate pH 7.4, protein 6 µM (6-15 µM); abundances from the most abundant charge states
[5] = molecular target: SBD556 (384-556) of human Hsp70 with the L542Y mutation (human) (UniProt P0DMV8); test: SEC; analytical SEC, Superdex 75 10/300 GL, 4 °C, 50 mM Tris pH 7.4, 150 mM KCl, 5 mM MgCl2; 70 µM protein
[6] = molecular target: dansyl-NR peptide (NRLLLTG, N-terminally labelled with dansyl); test: other fluorescence titration; chaperone titrated into 2 µM dansyl-NR peptide, 1 h at 25 °C, 50 mM Tris pH 7.4, 150 mM KCl, 5 mM MgCl2; single-site fit, apparent Kd
[7] = molecular target: SBD556 (384-556) of human Hsp70 with the L542Y mutation (human) (UniProt P0DMV8); test: SEC; analytical SEC, Superdex 75 10/300 GL, 4 °C, 50 mM Tris pH 7.4, 150 mM KCl, 5 mM MgCl2; 6 µM protein
[8] = molecular target: SBD556 (384-556) of human Hsp70 with the L542Y mutation (human) (UniProt P0DMV8); test: native MS; nESI-MS, 150 mM ammonium acetate pH 7.4, protein 6 µM (6-15 µM); abundances from the most abundant charge states
P0DMV8 [9] = test: SEC; analytical SEC after 1 h at room temperature with a 14-fold excess of NR peptide; protein concentration of this panel not stated
P0DMV8 [10] = test: SEC; analytical SEC of SBD641 refolded after thermal denaturation; protein concentration of this panel not stated
[11] = molecular target: SBD641 (384-641), full-length substrate-binding domain of human Hsp70 with the interdomain linker (human) (UniProt P0DMV8); test: SEC; analytical SEC after 1 h at room temperature with a 14-fold excess of NR peptide; protein concentration of this panel not stated
[12] = molecular target: SBD641 (384-641), full-length substrate-binding domain of human Hsp70 with the interdomain linker (human) (UniProt P0DMV8); test: native MS + SEC; oligomerization constant estimated from the populations of Table 1; equilibrium of monomer, dimer and trimer
[13] = molecular target: SBD641 (384-641), full-length substrate-binding domain of human Hsp70 with the interdomain linker (human) (UniProt P0DMV8); test: SEC; analytical SEC, Superdex 75 10/300 GL, 4 °C, 50 mM Tris pH 7.4, 150 mM KCl, 5 mM MgCl2; 70 µM protein
[14] = molecular target: SBD641 (384-641), full-length substrate-binding domain of human Hsp70 with the interdomain linker (human) (UniProt P0DMV8); test: native MS; nESI-MS, 150 mM ammonium acetate pH 7.4, protein 6 µM (6-15 µM); abundances from the most abundant charge states
[15] = molecular target: SBD641 (384-641), full-length substrate-binding domain of human Hsp70 with the interdomain linker (human) (UniProt P0DMV8); test: SEC; fraction of oligomeric species set beside DLS (Figure S3C), without NR peptide; 20 µM protein named for the panel
[16] = molecular target: SBD641 (384-641), full-length substrate-binding domain of human Hsp70 with the interdomain linker (human) (UniProt P0DMV8); test: SEC; analytical SEC, Superdex 75 10/300 GL, 4 °C, 50 mM Tris pH 7.4, 150 mM KCl, 5 mM MgCl2; 6 µM protein
[17] = molecular target: SBD641 (384-641), full-length substrate-binding domain of human Hsp70 with the interdomain linker (human) (UniProt P0DMV8); test: native MS; nESI-MS, 150 mM ammonium acetate pH 7.4, protein 6 µM (6-15 µM); abundances from the most abundant charge states; remark: listed apart in the source
[18] = molecular target: SBD641 (384-641), full-length substrate-binding domain of human Hsp70 with the interdomain linker (human) (UniProt P0DMV8); test: SEC; fraction of oligomeric species set beside DLS (Figure S3C), with 14-times excess of NR peptide; 20 µM SBD641 named for the panel
[19] = molecular target: SBD641 (384-641), full-length substrate-binding domain of human Hsp70 with the interdomain linker (human) (UniProt P0DMV8); test: SEC + other: dynamic light scattering; fraction of oligomers (SEC) and apparent hydrodynamic diameter (DLS) of SBD641 against protein concentration; extrapolation to 0.5 oligomer fraction
[20] = molecular target: full-length human Hsp70 (Hsp70 1A) (human) (UniProt P0DMV8); test: SEC; analytical SEC, Superdex 75 10/300 GL, 4 °C, 50 mM Tris pH 7.4, 150 mM KCl, 5 mM MgCl2; 70 µM protein
[21] = molecular target: full-length human Hsp70 (Hsp70 1A) (human) (UniProt P0DMV8); test: SEC; analytical SEC, Superdex 75 10/300 GL, 4 °C, 50 mM Tris pH 7.4, 150 mM KCl, 5 mM MgCl2; 6 µM protein
[22] = molecular target: full-length human Hsp70 (Hsp70 1A) (human) (UniProt P0DMV8); test: SEC; analytical SEC, Superdex 75 10/300 GL, 4 °C; 220 µM protein
[23] = molecular target: full-length human Hsp70 (Hsp70 1A) (human) (UniProt P0DMV8); test: native MS; nESI-MS, 150 mM ammonium acetate pH 7.4, protein 6 µM (6-15 µM); abundances from the most abundant charge states
[24] = molecular target: ΔLSBD641 (394-641), SBD641 of human Hsp70 without the first ten residues of the interdomain linker (human) (UniProt P0DMV8); test: SEC; analytical SEC, Superdex 75 10/300 GL, 4 °C, 50 mM Tris pH 7.4, 150 mM KCl, 5 mM MgCl2; 70 µM protein
[25] = molecular target: ΔLSBD641 (394-641), SBD641 of human Hsp70 without the first ten residues of the interdomain linker (human) (UniProt P0DMV8); test: SEC; fraction of oligomeric species set beside DLS (Figure S3C), without NR peptide; 20 µM protein named for the panel
[26] = molecular target: ΔLSBD641 (394-641), SBD641 of human Hsp70 without the first ten residues of the interdomain linker (human) (UniProt P0DMV8); test: SEC; analytical SEC, Superdex 75 10/300 GL, 4 °C, 50 mM Tris pH 7.4, 150 mM KCl, 5 mM MgCl2; 6 µM protein
[27] = molecular target: ΔLSBD641 (394-641), SBD641 of human Hsp70 without the first ten residues of the interdomain linker (human) (UniProt P0DMV8); test: native MS; nESI-MS, 150 mM ammonium acetate pH 7.4, protein 6 µM (6-15 µM); abundances from the most abundant charge states

FL-Hsp70 2LD, full-length human Hsp70 with Leu395 and Leu397 substituted by aspartic residues, sequence (P0DMV8 whole entry): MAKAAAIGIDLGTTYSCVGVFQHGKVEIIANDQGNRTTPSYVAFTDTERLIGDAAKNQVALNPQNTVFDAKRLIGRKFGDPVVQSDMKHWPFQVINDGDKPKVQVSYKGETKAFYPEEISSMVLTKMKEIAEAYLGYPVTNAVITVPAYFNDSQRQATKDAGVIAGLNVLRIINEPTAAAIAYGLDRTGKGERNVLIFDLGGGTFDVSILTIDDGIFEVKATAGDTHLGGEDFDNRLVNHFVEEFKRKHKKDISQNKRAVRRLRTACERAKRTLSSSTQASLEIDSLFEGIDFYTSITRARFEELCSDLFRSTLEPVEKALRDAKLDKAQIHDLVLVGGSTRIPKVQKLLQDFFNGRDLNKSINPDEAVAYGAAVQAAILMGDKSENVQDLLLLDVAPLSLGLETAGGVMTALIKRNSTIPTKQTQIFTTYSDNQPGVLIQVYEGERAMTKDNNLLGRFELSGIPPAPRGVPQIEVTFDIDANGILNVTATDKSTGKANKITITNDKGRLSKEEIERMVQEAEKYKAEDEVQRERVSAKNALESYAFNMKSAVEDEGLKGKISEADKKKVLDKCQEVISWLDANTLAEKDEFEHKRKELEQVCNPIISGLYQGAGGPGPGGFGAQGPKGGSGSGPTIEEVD

Substance: SBD556 (384-556) of human Hsp70 with the L542Y mutation
% monomer (P0DMV8 [2]): 93%
% monomer (P0DMV8 [3]): 97%
% monomer (P0DMV8 [4]): 82%

Substance: SBD556 (384-556) of human Hsp70 with the L542Y mutation (from UniProt P0DMV8 384-556) (domain or fragment)
% dimer [5]: 7%
% total oligomers [5]: 7%
Kd [6]: 53 µM
% dimer [7]: 3%
% total oligomers [7]: 3%
% dimer [8]: 16%
% total oligomers [8]: 18%
% trimer [8]: 2%

Substance: SBD641 (384-641), full-length substrate-binding domain of human Hsp70 with the interdomain linker
% monomer (P0DMV8 [9]): the monomeric fraction increases from 37% to 58% in the presence of peptide
% monomer (P0DMV8 [2]): 23%
% monomer (P0DMV8 [3]): 37%
% monomer (P0DMV8 [4]): 46%
% monomer (P0DMV8 [10]): a dramatic increase in the monomeric fraction of the refolded protein compared to the native protein (from 37% to 71%)

Substance: full-length human Hsp70 (Hsp70 1A)
% monomer (P0DMV8 [2]): 93%
% monomer (P0DMV8 [3]): 99%
% monomer (P0DMV8 [4]): 98%

Substance: ΔLSBD641 (394-641), SBD641 of human Hsp70 without the first ten residues of the interdomain linker
% monomer (P0DMV8 [2]): 86%
% monomer (P0DMV8 [3]): 91%
% monomer (P0DMV8 [4]): 92%

Substance: ΔLSBD641 (394-641), SBD641 of human Hsp70 without the first ten residues of the interdomain linker (from UniProt P0DMV8 394-641) (domain or fragment)
% dimer [24]: 14%
% total oligomers [24]: 14%
Kd [6]: 8 µM
fraction of oligomeric species [25]: 0.1
% dimer [26]: 9%
% total oligomers [26]: 9%
% dimer [27]: 8%
% total oligomers [27]: 8%
% trimer [27]: -0%

Next, values leading:

% oligomeric species [1]: < 9%
Substance: FL-Hsp70 2LD, full-length human Hsp70 with Leu395 and Leu397 substituted by aspartic residues (from UniProt P0DMV8 1-641) (natural protein)

% dimer [11]: 24%
% higher-order oligomers [11]: 18%
Kd [12]: 5 to 10 µM
% dimer [13]: 55%
% higher-order oligomers [13]: 22%
% total oligomers [13]: 77%
Kd [6]: 11 µM
% tetramer [14]: 2%
% trimer [14]: 12%
fraction of oligomeric species [15]: 0.7
% dimer [16]: 44%
% total oligomers [16]: 63%
% dimer [17]: 40%
% total oligomers [17]: 54%
% trimer [17]: 10%
fraction of oligomeric species [18]: 0.5
Kd [19]: 1 to 10 µM
Substance: SBD641 (384-641), full-length substrate-binding domain of human Hsp70 with the interdomain linker (from UniProt P0DMV8 384-641) (domain or fragment)

% dimer [20]: 7%
% oligomeric species [20]: 10%
% total oligomers [20]: 7%
Kd [6]: 9 µM
% dimer [21]: 1%
% total oligomers [21]: 1%
% oligomeric species [22]: 35%
% dimer [23]: 2%
% total oligomers [23]: 2%
% trimer [23]: -0%
Substance: full-length human Hsp70 (Hsp70 1A) (from UniProt P0DMV8 1-641) (natural protein)

— PMC3696110, “Hsp70 Oligomerization Is Mediated by an Interaction between the Interdomain Linker and the Substrate-Binding Domain” (PLoS ONE, 2013)
